# From patent publication US20220135638A1 (Takeda / Millennium, published 2022)
# Numbered stars: 1 amine (or outer) side, 2 acyl side, 3 side chain; on linkers, the order of the positions; unused ones are H or OH. Square brackets hold non-standard residues; d marks the D form. Primed or numbered codes have the meaning given here. Side chains are listed from the residue outwards. Ends that are not written are not given here. * marks the point of attachment. C20 diacid = O=C(O)CCCCCCCCCCCCCCCCCCC(=O)*; C16 diacid = O=C(O)CCCCCCCCCCCCCCC(=O)*; γGlu = O=C(O)[C@H](CCC(=O)[*:2])N[*:1]; Iva = CC[C@](C)(N)C(=O)O; PEG3′ = not defined here; Aib = CC(C)(N)C(=O)O
# T1: full-length human GIPR (GenBank NM_000164) with an N-terminal FLAG tag on HEK-293T cells (human), P48546
# T1 chain: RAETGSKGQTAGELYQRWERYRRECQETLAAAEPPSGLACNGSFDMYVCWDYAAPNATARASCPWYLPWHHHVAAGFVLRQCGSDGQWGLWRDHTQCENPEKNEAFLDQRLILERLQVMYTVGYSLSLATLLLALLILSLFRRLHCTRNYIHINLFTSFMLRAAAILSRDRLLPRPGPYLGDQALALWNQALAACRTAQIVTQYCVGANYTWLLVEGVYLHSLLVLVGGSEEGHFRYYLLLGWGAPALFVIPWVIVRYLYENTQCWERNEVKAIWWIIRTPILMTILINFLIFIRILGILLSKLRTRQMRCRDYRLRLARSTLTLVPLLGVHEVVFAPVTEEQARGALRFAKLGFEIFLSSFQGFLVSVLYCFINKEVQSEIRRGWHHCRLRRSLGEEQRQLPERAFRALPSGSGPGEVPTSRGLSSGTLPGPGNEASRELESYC
# T2: full-length human GLP-1R (GenBank NM_002062) with an N-terminal FLAG tag on HEK-293T cells (human), P43220
# T2 chain: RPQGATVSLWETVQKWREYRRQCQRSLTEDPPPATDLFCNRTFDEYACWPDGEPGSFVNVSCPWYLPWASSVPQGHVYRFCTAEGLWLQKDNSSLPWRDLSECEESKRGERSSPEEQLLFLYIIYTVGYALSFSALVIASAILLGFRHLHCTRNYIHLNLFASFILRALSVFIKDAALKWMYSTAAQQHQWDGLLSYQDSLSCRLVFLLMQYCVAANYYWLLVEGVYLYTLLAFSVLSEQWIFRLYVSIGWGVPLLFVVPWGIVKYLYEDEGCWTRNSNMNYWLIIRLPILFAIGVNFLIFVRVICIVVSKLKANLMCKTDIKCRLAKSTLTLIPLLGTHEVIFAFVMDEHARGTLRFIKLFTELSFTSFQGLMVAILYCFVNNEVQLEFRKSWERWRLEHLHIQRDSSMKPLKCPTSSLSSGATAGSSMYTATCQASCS
# Biological target: T1, full-length human GIPR (GenBank …)
# Test: cell-based or functional assay
row,Binder,GIP EC50(pM)
1,Y[Aib]EGTFISDYSIALDR[Aib]HQ[Aib]NFVNW[Iva]LAQRPSSGK([PEG3′-PEG3′-γGlu-C16 diacid])PPPS (ends and bridges not checked) [Compound No. 497],0.4
2,Y[Aib]EGTFISDYSIALDR[Aib]HQ[Aib]NFVNW[Iva]LAQRPSSGK([PEG3′-PEG3′-γGlu-Ida])PPPS (ends and bridges not checked) [Compound No. 498],0.6
3,Y[Aib]EGTFISDYSIALDR[Aib]HQ[Aib]NFVNW[Iva]LAQRPSSK([PEG3′-PEG3′-γGlu-Ida])APPPS (ends and bridges not checked) [Compound No. 495],0.86
4,Y[Aib]EGTFISDYSIALDR[Aib]HQ[Aib]NFVNW[Iva]LAQRPSSGAPPPK([PEG3′-PEG3′-γGlu-Ida]) (ends and bridges not checked) [Compound No. 480],0.5
5,Y[Aib]EGTFISDYSIALDR[Aib]HQ[Aib]NFVNW[Iva]LAQRPSSGAPPK([PEG3′-PEG3′-γGlu-Ida])S (ends and bridges not checked) [Compound No. 477],0.64
6,Y[Aib]EGTFISDYSIALDR[Aib]HQ[Aib]NFVNW[Iva]LAQRPSK([PEG3′-PEG3′-γGlu-Ida])GAPPPS (ends and bridges not checked) [Compound No. 492],1.22
7,Y[Aib]EGTFISDYSIALDR[Aib]HQ[Aib]NFVNW[Iva]LAQRKSSGAPPPS (not fully specified (residue 31); ends and bridges not checked) [Compound No. 469],0.62
8,Y[Aib]EGTFISDYSIALDR[Aib]HQ[Aib]NFVNW[Iva]LAQRK([PEG3′-PEG3′-γGlu-C20 diacid])SSGAPPPS (ends and bridges not checked) [Compound No. 487],1.38
9,Y[Aib]EGTFISDYSIALDR[Aib]HQ[Aib]NFVNW[Iva]LAQRPSSK([PEG3′-PEG3′-γGlu-C20 diacid])APPPS (ends and bridges not checked) [Compound No. 496],1.09
10,Y[Aib]EGTFISDYSIALDR[Aib]HQ[Aib]NFVNW[Iva]LAQRKSSGAPPPS (not fully specified (residue 31); ends and bridges not checked) [Compound No. 470],1.12
11,Y[Aib]EGTFISDYSIALDR[Aib]HQ[Aib]NFVNW[Iva]LAQRK([PEG3′-PEG3′-γGlu-Ida])SSGAPPPS (ends and bridges not checked) [Compound No. 486],0.7
12,Y[Aib]EGTFISDYSIALDR[Aib]HQ[Aib]NFVNW[Iva]LAQRPSSK([PEG3′-PEG3′-γGlu-C16 diacid])APPPS (ends and bridges not checked) [Compound No. 494],0.5
13,Y[Aib]EGTFISDYSIALDR[Aib]HQ[Aib]NFVNW[Iva]LAQRPK([PEG3′-PEG3′-γGlu-Ida])SGAPPPS (ends and bridges not checked) [Compound No. 489],0.96
14,Y[Aib]EGTFISDYSIALDR[Aib]HQ[Aib]NFVNW[Iva]LAQRK([PEG3′-PEG3′-γGlu-C16 diacid])SSGAPPPS (ends and bridges not checked) [Compound No. 485],0.28
15,Y[Aib]EGTFISDYSIALDR[Aib]HQ[Aib]NFVNW[Iva]LAQRPSK([PEG3′-PEG3′-γGlu-C20 diacid])GAPPPS (ends and bridges not checked) [Compound No. 493],1.22
16,Y[Aib]EGTFISDYSIALDR[Aib]HQ[Aib]NFVNW[Iva]LAQRPK([PEG3′-PEG3′-γGlu-C16 diacid])SGAPPPS (ends and bridges not checked) [Compound No. 488],0.75
17,Y[Aib]EGTFISDYSIALDR[Aib]HQ[Aib]NFVNW[Iva]LAQRPSSGAPPPK([PEG3′-PEG3′-γGlu-C20 diacid]) (ends and bridges not checked) [Compound No. 481],0.61
18,Y[Aib]EGTFISDYSIALDR[Aib]HQ[Aib]NFVNW[Iva]LAQRPSSGAPPK([PEG3′-PEG3′-γGlu-C20 diacid])S (ends and bridges not checked) [Compound No. 478],1.36
19,Y[Aib]EGTFISDYSIALDR[Aib]HQ[Aib]NFVNW[Iva]LAQRPSSGK([PEG3′-PEG3′-γGlu-C20 diacid])PPPS (ends and bridges not checked) [Compound No. 499],1.17
20,Y[Aib]EGTFISDYSIALDR[Aib]HQ[Aib]NFVNW[Iva]LAQRPSK([PEG3′-PEG3′-γGlu-C16 diacid])GAPPPS (ends and bridges not checked) [Compound No. 491],0.7
21,Y[Aib]EGTFISDYSIALDR[Aib]HQ[Aib]NFVNW[Iva]LAQRPSSGAPPK([PEG3′-PEG3′-γGlu-C16 diacid])S (ends and bridges not checked) [Compound No. 476],0.74
22,Y[Aib]EGTFISDYSIALDR[Aib]HQ[Aib]NFVNW[Iva]LAQRPSSGAPPPK([PEG3′-PEG3′-γGlu-C16 diacid]) (ends and bridges not checked) [Compound No. 479],0.42
23,Y[Aib]EGTFISDYSIALDR[Aib]HQ[Aib]NFVNW[Iva]LAQRPK([PEG3′-PEG3′-γGlu-C20 diacid])SGAPPPS (ends and bridges not checked) [Compound No. 490],1.88

# Biological target: T2, full-length human GLP-1R (GenBank …)
# Test: cell-based or functional assay
row,Binder,GLP EC50 [nM]
1,Y[Aib]EGTFISDYSIALDR[Aib]HQ[Aib]NFVNW[Iva]LAQRPSSGK([PEG3′-PEG3′-γGlu-C16 diacid])PPPS (ends and bridges not checked) [Compound No. 497],> 1000
2,Y[Aib]EGTFISDYSIALDR[Aib]HQ[Aib]NFVNW[Iva]LAQRPSSGK([PEG3′-PEG3′-γGlu-Ida])PPPS (ends and bridges not checked) [Compound No. 498],> 1000
3,Y[Aib]EGTFISDYSIALDR[Aib]HQ[Aib]NFVNW[Iva]LAQRPSSK([PEG3′-PEG3′-γGlu-Ida])APPPS (ends and bridges not checked) [Compound No. 495],> 1000
4,Y[Aib]EGTFISDYSIALDR[Aib]HQ[Aib]NFVNW[Iva]LAQRPSSGAPPPK([PEG3′-PEG3′-γGlu-Ida]) (ends and bridges not checked) [Compound No. 480],> 1000
5,Y[Aib]EGTFISDYSIALDR[Aib]HQ[Aib]NFVNW[Iva]LAQRPSSGAPPK([PEG3′-PEG3′-γGlu-Ida])S (ends and bridges not checked) [Compound No. 477],> 1000
6,Y[Aib]EGTFISDYSIALDR[Aib]HQ[Aib]NFVNW[Iva]LAQRPSK([PEG3′-PEG3′-γGlu-Ida])GAPPPS (ends and bridges not checked) [Compound No. 492],> 1000
7,Y[Aib]EGTFISDYSIALDR[Aib]HQ[Aib]NFVNW[Iva]LAQRKSSGAPPPS (not fully specified (residue 31); ends and bridges not checked) [Compound No. 469],> 1000
8,Y[Aib]EGTFISDYSIALDR[Aib]HQ[Aib]NFVNW[Iva]LAQRK([PEG3′-PEG3′-γGlu-C20 diacid])SSGAPPPS (ends and bridges not checked) [Compound No. 487],> 1000
9,Y[Aib]EGTFISDYSIALDR[Aib]HQ[Aib]NFVNW[Iva]LAQRPSSK([PEG3′-PEG3′-γGlu-C20 diacid])APPPS (ends and bridges not checked) [Compound No. 496],> 1000
10,Y[Aib]EGTFISDYSIALDR[Aib]HQ[Aib]NFVNW[Iva]LAQRKSSGAPPPS (not fully specified (residue 31); ends and bridges not checked) [Compound No. 470],> 1000
11,Y[Aib]EGTFISDYSIALDR[Aib]HQ[Aib]NFVNW[Iva]LAQRK([PEG3′-PEG3′-γGlu-Ida])SSGAPPPS (ends and bridges not checked) [Compound No. 486],> 1000
12,Y[Aib]EGTFISDYSIALDR[Aib]HQ[Aib]NFVNW[Iva]LAQRPSSK([PEG3′-PEG3′-γGlu-C16 diacid])APPPS (ends and bridges not checked) [Compound No. 494],> 1000
13,Y[Aib]EGTFISDYSIALDR[Aib]HQ[Aib]NFVNW[Iva]LAQRPK([PEG3′-PEG3′-γGlu-Ida])SGAPPPS (ends and bridges not checked) [Compound No. 489],> 1000
14,Y[Aib]EGTFISDYSIALDR[Aib]HQ[Aib]NFVNW[Iva]LAQRK([PEG3′-PEG3′-γGlu-C16 diacid])SSGAPPPS (ends and bridges not checked) [Compound No. 485],> 1000
15,Y[Aib]EGTFISDYSIALDR[Aib]HQ[Aib]NFVNW[Iva]LAQRPSK([PEG3′-PEG3′-γGlu-C20 diacid])GAPPPS (ends and bridges not checked) [Compound No. 493],> 1000
16,Y[Aib]EGTFISDYSIALDR[Aib]HQ[Aib]NFVNW[Iva]LAQRPK([PEG3′-PEG3′-γGlu-C16 diacid])SGAPPPS (ends and bridges not checked) [Compound No. 488],> 1000
17,Y[Aib]EGTFISDYSIALDR[Aib]HQ[Aib]NFVNW[Iva]LAQRPSSGAPPPK([PEG3′-PEG3′-γGlu-C20 diacid]) (ends and bridges not checked) [Compound No. 481],> 1000
18,Y[Aib]EGTFISDYSIALDR[Aib]HQ[Aib]NFVNW[Iva]LAQRPSSGAPPK([PEG3′-PEG3′-γGlu-C20 diacid])S (ends and bridges not checked) [Compound No. 478],> 1000
19,Y[Aib]EGTFISDYSIALDR[Aib]HQ[Aib]NFVNW[Iva]LAQRPSSGK([PEG3′-PEG3′-γGlu-C20 diacid])PPPS (ends and bridges not checked) [Compound No. 499],> 1000
20,Y[Aib]EGTFISDYSIALDR[Aib]HQ[Aib]NFVNW[Iva]LAQRPSK([PEG3′-PEG3′-γGlu-C16 diacid])GAPPPS (ends and bridges not checked) [Compound No. 491],> 1000
21,Y[Aib]EGTFISDYSIALDR[Aib]HQ[Aib]NFVNW[Iva]LAQRPSSGAPPK([PEG3′-PEG3′-γGlu-C16 diacid])S (ends and bridges not checked) [Compound No. 476],> 1000
22,Y[Aib]EGTFISDYSIALDR[Aib]HQ[Aib]NFVNW[Iva]LAQRPSSGAPPPK([PEG3′-PEG3′-γGlu-C16 diacid]) (ends and bridges not checked) [Compound No. 479],> 1000
23,Y[Aib]EGTFISDYSIALDR[Aib]HQ[Aib]NFVNW[Iva]LAQRPK([PEG3′-PEG3′-γGlu-C20 diacid])SGAPPPS (ends and bridges not checked) [Compound No. 490],> 1000
